Holding throughout (assay): cell-based or functional assay
Assay [1] addresses T1, human glucagon-like peptide 1 receptor (GLP-1R) (human, UniProt P43220 24-463).
Assay [2] addresses T2, human glucagon receptor (Glucagon-R) (human, UniProt P47871 26-477).
Assay [3] addresses T1, human glucagon-like peptide 1 receptor …. The source holds these as a separate data set.
In assay [4] the target is T2, human glucagon receptor (Glucagon-R). The source holds these as a separate data set.

Like-named read-outs stand apart in the source and are kept apart here. Numbered stars: 1 amine (or outer) side, 2 acyl side, 3 side chain; on linkers, the order of the positions; unused ones are H or OH. Square brackets hold non-standard residues; d marks the D form. Side chains are listed from the residue outwards. Ends that are not written are not given here. * marks the point of attachment. isoGlu = used interchangeably with γ-Glu; γGlu = O=C(O)[C@H](CCC(=O)[*:2])N[*:1]; Palmitoyl = CCCCCCCCCCCCCCCC(=O)*; Aib = CC(C)(N)C(=O)O

T1 sequence (P43220 24-463): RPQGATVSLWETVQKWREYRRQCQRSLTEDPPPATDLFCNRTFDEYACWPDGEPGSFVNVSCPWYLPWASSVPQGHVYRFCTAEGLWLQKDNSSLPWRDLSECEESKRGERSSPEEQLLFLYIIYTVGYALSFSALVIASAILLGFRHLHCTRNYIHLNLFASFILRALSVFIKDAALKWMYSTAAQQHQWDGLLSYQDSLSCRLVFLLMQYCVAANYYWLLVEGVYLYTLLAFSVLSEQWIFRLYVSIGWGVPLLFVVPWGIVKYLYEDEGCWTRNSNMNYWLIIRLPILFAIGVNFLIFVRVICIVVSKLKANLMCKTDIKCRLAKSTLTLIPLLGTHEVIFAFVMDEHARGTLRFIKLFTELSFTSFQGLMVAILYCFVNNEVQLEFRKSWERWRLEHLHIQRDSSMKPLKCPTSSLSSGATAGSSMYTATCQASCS

Turning to H-H[Aib]QGTFTSDYSKYLDSK([isoGlu-Palmitoyl])AAEDFVEWLLSA-NH2 [Compound 42], the “EC50 (nM) GLP-1R, cAMP formation” value in assay [1] was found to be 0.03 nM. The “EC50 (nM) GluR, cAMP formation” value in assay [2] was determined as 0.27 nM.

In the case of H-H[Aib]QGTFTSDYSKYLDSKAAHDFVK([isoGlu-Palmitoyl])WLLSA-NH2 [Compound 36], in assay [1], the “EC50 (nM) GLP-1R, cAMP formation” value is 0.191 nM. The “EC50 (nM) GluR, cAMP formation” value in assay [2] turned out to be 0.213 nM.

B1: Compound 5 (peptide)
peptide: H-HSQGTFTSDYSKYLDSKAAHDFVEWLK([γGlu-Palmitoyl])RA-NH2
SMILES: CCCCCCCCCCCCCCCC(=O)N[C@@H](CCC(=O)NCCCC[C@H](NC(=O)[C@H](CC(C)C)NC(=O)[C@H](Cc1c[nH]c2ccccc12)NC(=O)[C@H](CCC(=O)O)NC(=O)[C@@H](NC(=O)[C@H](Cc1ccccc1)NC(=O)[C@H](CC(=O)O)NC(=O)[C@H](Cc1c[nH]cn1)NC(=O)[C@H](C)NC(=O)[C@H](C)NC(=O)[C@H](CCCCN)NC(=O)[C@H](CO)NC(=O)[C@H](CC(=O)O)NC(=O)[C@H](CC(C)C)NC(=O)[C@H](Cc1ccc(O)cc1)NC(=O)[C@H](CCCCN)NC(=O)[C@H](CO)NC(=O)[C@H](Cc1ccc(O)cc1)NC(=O)[C@H](CC(=O)O)NC(=O)[C@H](CO)NC(=O)[C@@H](NC(=O)[C@H](Cc1ccccc1)NC(=O)[C@@H](NC(=O)CNC(=O)[C@H](CCC(N)=O)NC(=O)[C@H](CO)NC(=O)[C@@H](N)Cc1c[nH]cn1)[C@@H](C)O)[C@@H](C)O)C(C)C)C(=O)N[C@@H](CCCNC(=N)N)C(=O)N[C@@H](C)C(N)=O)C(=O)O
Take B1: the “EC50 (nM) GLP-1R, cAMP formation” value in assay [3] is 0.57 nM. Further, in assay [4], the “EC50 (nM) GluR, cAMP formation” value was 0.22 nM.

Take H-H[Aib]QGTFTSDYSKYLDSK([isoGlu-Palmitoyl])AAHDFVEWLLEA-NH2 [Compound 43]: the “EC50 (nM) GLP-1R, cAMP formation” value in assay [1] came out at 0.082 nM. The “EC50 (nM) GluR, cAMP formation” value in assay [2] was 0.12 nM.

Turning to HXQGTFTSDYSKYLDSKAAHDFVEWLLSA (Aib at position 2; K(Hexadecanoyl-γ-Glu) at position 17; C-terminal amide (NH2)) [Compound 7], in assay [3], the “EC50 (nM) GLP-1R, cAMP formation” value was found to be 0.11 nM. Also, the “EC50 (nM) GluR, cAMP formation” value in assay [4] amounted to 0.16 nM.

B2: Compound 35 (peptide)
peptide: H-H[Aib]QGTFTSDYSKYLDSKAAK([γGlu-Palmitoyl])DFVEWLLSA-NH2
SMILES: CCCCCCCCCCCCCCCC(=O)N[C@@H](CCC(=O)NCCCC[C@H](NC(=O)[C@H](C)NC(=O)[C@H](C)NC(=O)[C@H](CCCCN)NC(=O)[C@H](CO)NC(=O)[C@H](CC(=O)O)NC(=O)[C@H](CC(C)C)NC(=O)[C@H](Cc1ccc(O)cc1)NC(=O)[C@H](CCCCN)NC(=O)[C@H](CO)NC(=O)[C@H](Cc1ccc(O)cc1)NC(=O)[C@H](CC(=O)O)NC(=O)[C@H](CO)NC(=O)[C@@H](NC(=O)[C@H](Cc1ccccc1)NC(=O)[C@@H](NC(=O)CNC(=O)[C@H](CCC(N)=O)NC(=O)C(C)(C)NC(=O)[C@@H](N)Cc1c[nH]cn1)[C@@H](C)O)[C@@H](C)O)C(=O)N[C@@H](CC(=O)O)C(=O)N[C@@H](Cc1ccccc1)C(=O)N[C@H](C(=O)N[C@@H](CCC(=O)O)C(=O)N[C@@H](Cc1c[nH]c2ccccc12)C(=O)N[C@@H](CC(C)C)C(=O)N[C@@H](CC(C)C)C(=O)N[C@@H](CO)C(=O)N[C@@H](C)C(N)=O)C(C)C)C(=O)O
Consider B2, for which, in assay [1], the “EC50 (nM) GLP-1R, cAMP formation” value was determined as 0.202 nM. In addition, the “EC50 (nM) GluR, cAMP formation” value in assay [2] stood at 0.18 nM.

Turning to H-H[Aib]QGTFTSDYSKYLDSKAAHDFVEWLLK([isoGlu-Palmitoyl])A-NH2 [Compound 37], the “EC50 (nM) GLP-1R, cAMP formation” value in assay [1] came out at 0.207 nM. Besides, in assay [2], the “EC50 (nM) GluR, cAMP formation” value stood at 0.147 nM.

B3: Compound 9 (peptide)
peptide: H-H[Aib]QGTFTSDYSKYLDSK([γGlu-Palmitoyl])AARDFVAWLLRA-NH2
SMILES: CCCCCCCCCCCCCCCC(=O)N[C@@H](CCC(=O)NCCCC[C@H](NC(=O)[C@H](CO)NC(=O)[C@H](CC(=O)O)NC(=O)[C@H](CC(C)C)NC(=O)[C@H](Cc1ccc(O)cc1)NC(=O)[C@H](CCCCN)NC(=O)[C@H](CO)NC(=O)[C@H](Cc1ccc(O)cc1)NC(=O)[C@H](CC(=O)O)NC(=O)[C@H](CO)NC(=O)[C@@H](NC(=O)[C@H](Cc1ccccc1)NC(=O)[C@@H](NC(=O)CNC(=O)[C@H](CCC(N)=O)NC(=O)C(C)(C)NC(=O)[C@@H](N)Cc1c[nH]cn1)[C@@H](C)O)[C@@H](C)O)C(=O)N[C@@H](C)C(=O)N[C@@H](C)C(=O)N[C@@H](CCCNC(=N)N)C(=O)N[C@@H](CC(=O)O)C(=O)N[C@@H](Cc1ccccc1)C(=O)N[C@H](C(=O)N[C@@H](C)C(=O)N[C@@H](Cc1c[nH]c2ccccc12)C(=O)N[C@@H](CC(C)C)C(=O)N[C@@H](CC(C)C)C(=O)N[C@@H](CCCNC(=N)N)C(=O)N[C@@H](C)C(N)=O)C(C)C)C(=O)O
For B3, the “EC50 (nM) GLP-1R, cAMP formation” value in assay [3] came out at 0.12 nM. Moreover, the “EC50 (nM) GluR, cAMP formation” value in assay [4] was determined as 0.17 nM.

Consider H-H[Aib]QGTFTSDYSKYLDEK([isoGlu-Palmitoyl])AAHDFVEWLLSA-NH2 [Compound 40], for which, in assay [1], the “EC50 (nM) GLP-1R, cAMP formation” value came to 0.2 nM. Moreover, in assay [2], the “EC50 (nM) GluR, cAMP formation” value was 0.18 nM.

B4: Compound 10 (peptide)
peptide: H-H[Aib]QGTFTSDYSKYLDSKAAK([γGlu-Palmitoyl])DFVAWLLRA-NH2
SMILES: CCCCCCCCCCCCCCCC(=O)N[C@@H](CCC(=O)NCCCC[C@H](NC(=O)[C@H](C)NC(=O)[C@H](C)NC(=O)[C@H](CCCCN)NC(=O)[C@H](CO)NC(=O)[C@H](CC(=O)O)NC(=O)[C@H](CC(C)C)NC(=O)[C@H](Cc1ccc(O)cc1)NC(=O)[C@H](CCCCN)NC(=O)[C@H](CO)NC(=O)[C@H](Cc1ccc(O)cc1)NC(=O)[C@H](CC(=O)O)NC(=O)[C@H](CO)NC(=O)[C@@H](NC(=O)[C@H](Cc1ccccc1)NC(=O)[C@@H](NC(=O)CNC(=O)[C@H](CCC(N)=O)NC(=O)C(C)(C)NC(=O)[C@@H](N)Cc1c[nH]cn1)[C@@H](C)O)[C@@H](C)O)C(=O)N[C@@H](CC(=O)O)C(=O)N[C@@H](Cc1ccccc1)C(=O)N[C@H](C(=O)N[C@@H](C)C(=O)N[C@@H](Cc1c[nH]c2ccccc12)C(=O)N[C@@H](CC(C)C)C(=O)N[C@@H](CC(C)C)C(=O)N[C@@H](CCCNC(=N)N)C(=O)N[C@@H](C)C(N)=O)C(C)C)C(=O)O
Consider B4, for which, in assay [3], the “EC50 (nM) GLP-1R, cAMP formation” value stood at 0.15 nM. In addition, the “EC50 (nM) GluR, cAMP formation” value in assay [4] was 0.63 nM.

B5: Compound 34 (peptide)
peptide: H-H[Aib]QGTFTSDYSKYLDK([γGlu-Palmitoyl])KAAHDFVEWLLSA-NH2
SMILES: CCCCCCCCCCCCCCCC(=O)N[C@@H](CCC(=O)NCCCC[C@H](NC(=O)[C@H](CC(=O)O)NC(=O)[C@H](CC(C)C)NC(=O)[C@H](Cc1ccc(O)cc1)NC(=O)[C@H](CCCCN)NC(=O)[C@H](CO)NC(=O)[C@H](Cc1ccc(O)cc1)NC(=O)[C@H](CC(=O)O)NC(=O)[C@H](CO)NC(=O)[C@@H](NC(=O)[C@H](Cc1ccccc1)NC(=O)[C@@H](NC(=O)CNC(=O)[C@H](CCC(N)=O)NC(=O)C(C)(C)NC(=O)[C@@H](N)Cc1c[nH]cn1)[C@@H](C)O)[C@@H](C)O)C(=O)N[C@@H](CCCCN)C(=O)N[C@@H](C)C(=O)N[C@@H](C)C(=O)N[C@@H](Cc1c[nH]cn1)C(=O)N[C@@H](CC(=O)O)C(=O)N[C@@H](Cc1ccccc1)C(=O)N[C@H](C(=O)N[C@@H](CCC(=O)O)C(=O)N[C@@H](Cc1c[nH]c2ccccc12)C(=O)N[C@@H](CC(C)C)C(=O)N[C@@H](CC(C)C)C(=O)N[C@@H](CO)C(=O)N[C@@H](C)C(N)=O)C(C)C)C(=O)O
As for B5, the “EC50 (nM) GLP-1R, cAMP formation” value in assay [1] amounted to 0.109 nM. Further, the “EC50 (nM) GluR, cAMP formation” value in assay [2] came out at 0.053 nM.

B6: Compound 6 (peptide)
peptide: H-HSQGTFTSDYSKYLDSKAAHDFVEWLLK([γGlu-Palmitoyl])A-NH2
SMILES: CCCCCCCCCCCCCCCC(=O)N[C@@H](CCC(=O)NCCCC[C@H](NC(=O)[C@H](CC(C)C)NC(=O)[C@H](CC(C)C)NC(=O)[C@H](Cc1c[nH]c2ccccc12)NC(=O)[C@H](CCC(=O)O)NC(=O)[C@@H](NC(=O)[C@H](Cc1ccccc1)NC(=O)[C@H](CC(=O)O)NC(=O)[C@H](Cc1c[nH]cn1)NC(=O)[C@H](C)NC(=O)[C@H](C)NC(=O)[C@H](CCCCN)NC(=O)[C@H](CO)NC(=O)[C@H](CC(=O)O)NC(=O)[C@H](CC(C)C)NC(=O)[C@H](Cc1ccc(O)cc1)NC(=O)[C@H](CCCCN)NC(=O)[C@H](CO)NC(=O)[C@H](Cc1ccc(O)cc1)NC(=O)[C@H](CC(=O)O)NC(=O)[C@H](CO)NC(=O)[C@@H](NC(=O)[C@H](Cc1ccccc1)NC(=O)[C@@H](NC(=O)CNC(=O)[C@H](CCC(N)=O)NC(=O)[C@H](CO)NC(=O)[C@@H](N)Cc1c[nH]cn1)[C@@H](C)O)[C@@H](C)O)C(C)C)C(=O)N[C@@H](C)C(N)=O)C(=O)O
As to B6, the “EC50 (nM) GLP-1R, cAMP formation” value in assay [3] was 0.09 nM. For the same molecule, the “EC50 (nM) GluR, cAMP formation” value in assay [4] worked out at 0.1 nM.

B7: Compound 33 (peptide)
peptide: HXQGTFTSDYSKYLDSKAAHDFVEWLLSA
modifications: Aib at position 2; K(Hexadecanoyl-isoGlu) at position 12; C-terminal amide (NH2)
Take B7: in assay [1], the “EC50 (nM) GLP-1R, cAMP formation” value amounted to 0.131 nM. The “EC50 (nM) GluR, cAMP formation” value in assay [2] came out at 0.389 nM.

With H-H[Aib]QGTFTSDYSKYLDSK([isoGlu-Palmitoyl])AAKDFVEWLLSA-NH2 [Compound 39], in assay [1], the “EC50 (nM) GLP-1R, cAMP formation” value was 0.16 nM. Also, the “EC50 (nM) GluR, cAMP formation” value in assay [2] came to 0.24 nM.

Turning to H[Aib]QGTFTSDYSKYLDSK([isoGlu-Palmitoyl])AAHEFVEWLLSA-NH2 [Compound 41], in assay [1], the “EC50 (nM) GLP-1R, cAMP formation” value turned out to be 0.13 nM. Besides, the “EC50 (nM) GluR, cAMP formation” value in assay [2] is 0.08 nM.

The record behind these values is US20160120951A1 (ZEALAND PHARMA A S, published 2016).
